US12365912 (UNIVERSITY OF FLORIDA RESEARCH FOUNDATION, dated 2025)

B1: EYFP^C-CsACD2 (other)
chain: MAVNHLCQWQYLRFQLSHPSAPACRYLSPSRPKSSTSSTAKVNCSAAPSSSPMDSHNEGRKKFMEFPYASGPVRQLMVDLVSTVENTLDSQLLPCTLPPDVQYYENQNGTAQASLQIRSGLKSSLIDFILGSWVHSELPTGAALNITSLSAYLNSSTDAPNLLIELIQSSPTSLVLILDLPPRKDLVLHPDYLHTFYESTRLDEYRQMLEKVPEVRPYFSSSLYLRCVVSPSAIMVRVDTETETGAGESTRLDYIITNHVHPVAKQVIGIWLNQCACGGRHVGESDKAYLEKRDGLIKNKTIEIDLGSSFPRLFGPQVASRVLGEIQKVFTA
notes: not shown: C-terminal fragment of EYFP (pSAT6-cEYFP-C1-B) and its linker
B2: CsACD2-EYFP^N (other)
chain: B1 chain
notes: not shown: N-terminal fragment of EYFP (pSAT6-nEYFP-C1) and its linker

How the values were obtained:
[1] = target: SDE15-EYFP^N ([…]_04025 without signal peptide fused to the N-terminal fragment of EYFP) (Ca. liberibacter asiaticus); experiment: BiFC in citrus leaf protoplasts (FIG. 10B)
EYFP^C-CsACD2 = target: B1; experiment: BiFC in citrus leaf protoplasts
[2] = target: EYFP^C-SDE15 ([…]_04025 without signal peptide fused to the C-terminal fragment of EYFP) (Ca. liberibacter asiaticus); experiment: BiFC in citrus leaf protoplasts (FIG. 10B)

Binder	binding result [1]	binding result (EYFP^C-CsACD2)	binding result [2]
B1	binds	–	–
B2	–	no binding	binds
